Results: US20230036481A1

How the values were obtained:
[1] = target: CD19 on Raji-Luc cells (CD19+ B cell lymphoma cell line) (human) (UniProt P15391); assay: cell-based or functional assay
[2] = target: tagged human CD19 recombinant protein (human) (UniProt P15391); assay: flow cytometry; transduced oNK cells stained with tagged CD19 recombinant protein and fluorescent anti-Myc antibody, after sorting
[3] = target: tagged human CD19 recombinant protein (human) (UniProt P15391); assay: flow cytometry; transduced oNK cells stained with tagged CD19 recombinant protein and fluorescent anti-Myc antibody, before enrichment

anti-CD19 chimeric antigen receptor (CAR) expressed on oNK cells (CAR19-oNK)
percentage of cytotoxicity (luciferase luminescence), E:T 0.2:1, 1 hour [1]: 13.9% | percentage of cytotoxicity (luciferase luminescence), E:T 0.5:1, 1 hour [1]: 45.9% | percentage of cytotoxicity (luciferase luminescence), E:T 1:1, 1 hour [1]: 64.1% | percentage of cytotoxicity (luciferase luminescence), E:T 2:1, 1 hour [1]: 80% | percentage of cytotoxicity (luciferase luminescence), E:T 5:1, 1 hour [1]: 91.4% | double positive of fluorescent signal of expressed Myc tag and bound human CD19 recombinant protein (% of cells) [2]: 82.3% | double positive of fluorescent signal of expressed Myc tag and bound human CD19 recombinant protein (% of cells) [3]: 9.06%
